Article PMC4140821, “Structural and Biochemical Characterization of the Cop9 Signalosome CSN5/CSN6 Heterodimer” (PLoS ONE, 2014)
Positions count from the first letter of the chain named. Names and notes keep the numbering of the source.

What was measured:
CSN5^ΔC,R106T = biological target: T1, CSN5^ΔC,R106T (human, UniProt Q92905 1-257, R106T); assay: ITC; CSN6^ΔC (WT and variants; 1 mM, 30 injections of 1.8 µL) injected into CSN5^ΔC (WT and variants; 100 µM) in the cell; 20°C; 20 mM Na MES pH 6.5, 75 mM NaCl; one site model; apparent; settings: both partners purified
T1 construct: COP9 signalosome subunit 5 (CSN5, Jab1), human, residues 1-257, R106T in the Ins-1 region; also called conformationally-relaxed CSN5^ΔC variant; R106T variant

[1] = biological target: T2, CSN5^ΔC,WT (human CSN5 1–257 fragment) (human, UniProt Q92905 1-257); assay: as above; settings: both partners purified
T2 construct: COP9 signalosome subunit 5 (CSN5, Jab1), human, residues 1-257 (MPN domain with N- and C-terminal appendices); also called CSN5 catalytic domain; Jab1 fragment

[2] = biological target: the molecule itself; assay: crystal structure; CSN6^ΔC alone; crystals at 18°C in 0.2 M tri-sodium citrate, 0.1 M Bis-Tris propane pH 6.5, 20% PEG3350; dimer generated by the crystallographic 2-fold

T2 sequence (Q92905 1-257, stated change not applied): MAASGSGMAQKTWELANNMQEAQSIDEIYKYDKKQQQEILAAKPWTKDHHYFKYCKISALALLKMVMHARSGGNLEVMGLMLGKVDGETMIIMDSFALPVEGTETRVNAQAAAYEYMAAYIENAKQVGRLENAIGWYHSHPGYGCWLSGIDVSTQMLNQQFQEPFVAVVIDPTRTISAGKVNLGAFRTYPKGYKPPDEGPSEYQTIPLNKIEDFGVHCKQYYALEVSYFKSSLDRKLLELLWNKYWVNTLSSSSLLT
T1 sequence (Q92905 1-257 R106T): as the sequence (Q92905 1-257, stated change not applied) above, with R106T counted along it

B1: CSN6^ΔC (human CSN6 31–211 fragment) (domain or fragment, UniProt Q7L5N1 31-211, looked up)
chain: MACGVTGSVSVALHPLVILNISDHWIRMRSQEGRPVQVIGALIGKQEGRNIEVMNSFELLSHTVEEKIIIDKEYYYTKEEQFKQVFKELEFLGWYTTGGPPDPSDIHVHKQVCEIIESPLFLKLNPMTKHTDLPVSVFESVIDIINGEATMLFAELTYTLATEEAERIGVDHVARMTATGS
notes: COP9 signalosome subunit 6 (CSN6), human, residues 31-211 (MPN domain with a C-terminal extension); Cloned in pGEX-6P1; Uniformly 15N-labelled for NMR; also called CSN6 N-terminal domain; CSN6 MPN domain; source: LB or 15NH4Cl M9 medium for NMR; not shown: GST, N-terminal, cleaved
For B1, the binding result (CSN5^ΔC,R106T) was “binds”, the Kd [1] was 6 ± 1 µM and the binding result [2] was “binds”.

B2: CSN6^ΔC,V115E (domain or fragment, human, UniProt Q7L5N1 31-211, looked up)
chain: B1 chain with V85E
notes: COP9 signalosome subunit 6 (CSN6), human, residues 31-211, V115E; everywhere else V115E; also called V115E variant; not shown: GST, N-terminal, cleaved
With B2 the “fold reduction in binding against WT CSN6^ΔC” value [1] was 5 fold.
